The text below walks through data of article PMC9174178 (Cell Reports, 2022).

For assay [1], the target named is T1, BM-4831-CoV receptor-binding domain (RBD) (Bat coronavirus BM48-31/BGR/2008). The experiment in a line: ELISA. A general note: In an ELISA, binding on a coated surface is turned into a signal by an enzyme label.
In assay [2] the target is Rs4081-CoV receptor-binding domain (RBD) (Bat SARS-like coronavirus Rs4081, UniProt A0A2D1PX44). The experiment in a line: ELISA.
In assay [3] the target is BtkY72-CoV receptor-binding domain (RBD) (Bat coronavirus BtKY72, UniProt A0A3Q8AKM0). The experiment in a line: ELISA.
The target of assay [4] is Yun11-CoV receptor-binding domain (RBD) (Bat coronavirus Cp/Yunnan2011, UniProt R9QTH3). The assay is described as follows: ELISA.
The target of assay [5] is Shaanxi2011-CoV receptor-binding domain (RBD) (Bat coronavirus Rp/Shaanxi2011, UniProt R9QTA0). The experiment in a line: ELISA.
The target in assay [6] is W1V1-CoV receptor-binding domain (RBD) (Bat SARS-like coronavirus WIV1, UniProt U5WI05). The assay is described as follows: ELISA.
Assay [7] concerns the target RaTG13-CoV receptor-binding domain (RBD) (Bat coronavirus RaTG13, UniProt A0ABF7PLN6). The assay is described as follows: ELISA.
Assay [8] has as its target Rp3-CoV receptor-binding domain (RBD) (Bat SARS-like coronavirus Rp3/2004, UniProt Q3I5J5). The assay is described as follows: ELISA.
The target of assay [9] is Rs7327-CoV receptor-binding domain (RBD) (Bat SARS-like coronavirus Rs7327, UniProt A0A2D1PXC0). The assay is described as follows: ELISA.
In assay [10] the target is Rs4092-CoV receptor-binding domain (RBD) (Bat SARS-like coronavirus Rs4092, UniProt A0A2D1PX37). The experiment in a line: ELISA.
The target in assay [11] is Rf1-CoV receptor-binding domain (RBD) (Bat SARS CoV Rf1/2004, UniProt Q0QDZ0). The assay is described as follows: ELISA.
The target of assay [12] is HKU3-1-CoV receptor-binding domain (RBD) (Bat coronavirus HKU3-1, UniProt Q3LZX1). The assay is described as follows: ELISA.
Assay [13] deals with ZC45-CoV receptor-binding domain (RBD) (Bat SARS-like coronavirus ZC45, UniProt A0A2R3SUW7). The experiment in a line: ELISA.
Assay [14] has as its target pangolin17-CoV receptor-binding domain (RBD) (Pangolin coronavirus (pangolin17, …)). The assay is described as follows: ELISA.
Assay [15] addresses YN2013-CoV receptor-binding domain (RBD) (BtRs-BetaCoV/YN2013, UniProt A0A0U1WJY8). The assay is described as follows: ELISA.
For assay [16], the target named is SHC014-CoV receptor-binding domain (RBD) (Bat SARS-like coronavirus RsSHC014, UniProt U5WLK5). The experiment in a line: ELISA.
Assay [17] deals with T1, BM-4831-CoV receptor-binding domain …. The assay is described as follows: SPR.
Assay [18] addresses T2, SARS-CoV receptor-binding domain (RBD) (SARS-CoV (AAP13441.1), UniProt P59594). The assay is described as follows: SPR. A general note: In SPR one partner is held on a chip, and binding of the other changes the refractive index at the surface.
The target in assay [19] is SARS-CoV-2 receptor-binding domain (RBD) (SARS-CoV-2 (MN985325.1), UniProt P0DTC2).
Assay [20] concerns the target T2, SARS-CoV receptor-binding domain (RBD).

B1: psNb 1-22 (VHH)
VHH: HVQLVESGGGLVQPGGSLRLSCAASGRSFNSYLMGWFRQAPGKEREFVAWISGSPHDIIRYRDSVKDRFTISRDNAKNTVYLQMNSLKPVDTAVYYCAVGSLRVGSFSPDYWGQGTQVTVSS
Turning to B1, the binding result in assay [1] is “binds”.

B2: psNb 2-45 (VHH)
VHH: QVQLVESGGGLVQAGGSLRLSCTASGYDFSILAIAWYRQAPGKERELVAAISRVGSTDYADSVKGRFTISRDNTKNTVSLQMDSLKPEDTAVYYCNAGIPMTTVLSGLGFWGQGTQVTVSS
A word on the Kd: it is the free concentration of one partner at which half of the binding sites on the other are occupied at equilibrium, for simple one-to-one binding. Read a high Kd as a looser complex. Turning to B2, the binding result in assay [2], in assay [3], in assay [4], in assay [5], in [6] and in assay [7] was “binds” each time. Also, the binding result in [8], in assay [9], in assay [10], in assay [11], in [12] and in assay [13] was “binds” in each case. Also, the binding result in [14], in [15] and in assay [16] was “binds” throughout. Besides, the Kd was 0.044 nM in assay [17] and 304 nM in [18].

B3: psNb 2-65 (VHH)
VHH: HVQLVESGGGLVQAGGSLRLSCAASGTISTLNAMGWYRQAPGKQRELLASISNLGTTYHADSVAGRFTISRGSAKNTVNLQMNSLKPDDTAVYYCNTRVLEGGTQIRDYWGQGTQVTVSS
With B3, the binding result in assay [1] is given as “binds”.

B4: psNb 2-31 (VHH)
VHH: QVQLVESGGGLVQAGESLRLSCAASKPTFRNFAAGWFRQTPGKDREFVAVIEYDGDSAYYADSVKGRFTISRDNAKNTVYLQMNRLKPGDTAVYICAIGGNHYDPSKYYTADEYDYWGQGTQVTVSS
Consider B4, for which the binding result in assay [2], in assay [3], in assay [4], in assay [5], in [6] and in [7] was “binds” throughout. Besides, the binding result in assay [8], in assay [9], in assay [10], in assay [11], in assay [12] and in assay [13] was “binds” throughout. Besides, the binding result in assay [14], in [15] and in assay [16] was “binds” in each case. Further, the values for the Kd in assay [17] and in assay [18] were 3.6 nM and 0.00396 nM, respectively.

B5: psNb 1-23 (VHH)
VHH: QVQLVESGGGLVQAGGSLRLSCAASGRTDSISDMGWFRQAPGKEREFVAVVGWSGGGTDYAHSVKGRFTISRDNAKNTVYLQMNSLKPEDTAVYYCAVGSLRVGSFSVEYWGQGTQVTVSS
Regarding B5, in assay [1], the binding result is given as “binds”.

B6: 1-28 (VHH)
VHH: QVQLVESGGGLVQAGGSLRLSCAVSGRTVSTYGMAWFRQTPGKKRDFVATITRSEGTTFYADSVKGRFTISRDNAKNTVYLQMNSLKIEDTAVYYCAVRRDSSWGYSRDLFEYDDWGQGTQVTVSS
As for B6, the binding result in assay [19] and in assay [20] was “binds” throughout.

B7: psNb 2-38 (VHH)
VHH: QVQLVESGGGLVQAGGSLRLSCAAAARFSTSAMGWFRQAPGKEREFVAAISWSNTNTHYADTVKGRFTISADTAKETVDLQMNSLKPEDTAVYYCVQGGWGIRQPIIVDYWGKGTQVTVSS
Consider B7, for which the binding result in assay [1] is on record as “binds”.

B8: psNb 2-34 (VHH)
VHH: HVQLVESGGGLVQAGGSLRLSCAASGRTFSRYAAGWFRQAPGKEREFVAVIEWDGDSAYYADPVKGRFTISRDNAKNTVYLQMNRLKPEDTAVYICAVGGNHYSRSKYYNLDEYDDWGQGTQVTVSS
On to B8, for which the binding result in [2], in assay [3], in assay [4], in assay [5], in assay [6] and in assay [7] was “binds” throughout. In addition, the binding result in [8], in [9], in assay [10], in assay [11], in assay [12] and in [1] was “binds” in each case. Further, the binding result in [13], in assay [14], in assay [15] and in assay [16] was “binds” throughout.
